Experimental data taken from patent US20150239990A1 (published 2015).
Substitutions are numbered along the chain they refer to.

B1: safe variant 1F2 (partially humanized, fused to human C-lambda and CH1), Fab displayed on phage (Fab, V domains shown)
VH: EVQLLESGGGLVQPGGSLRLSCAASGFTFSTYAMSWVRQAPGKGPEWVSGINTGGGSTGYADSVKGRFTISRDNSKNTLYLQMNSLRPEDTAVYYCAKDWMATTPWGQGTQVTVSS
VL: QTVVTQEPSFSVSPGGTVTLTCGLSSGSVTTNNYPGWFQQTPGQAPRTLIYNTNNRHSGVPSRFSGSILGNKAALTITGAQADDESDYYCALYMSSGSNNAVFGGGTKLTVLG
notes: also called safe 1F2
B2: hum 1F2 (fully humanized VL and VH fused to human C-lambda and CH1), Fab displayed on phage (Fab, V domains shown)
VH: B1 VH with P45L, P88A, Q111L
VL: B1 VL with F38Y, H57S, S62D
notes: Tested as a gene3-Fab fusion on phage
B3: wt 1F2 (llama VL and VH fused to human C-lambda and CH1), Fab displayed on phage (Fab, V domains shown)
VH: B1 VH with L5V, S75A, R87K
VL: B1 VL with T2A, F10L, L69S, A82P, D83E, S86A, K108H
notes: Tested as a gene3-Fab fusion on phage (crude phage extract)
B4: wt 1E2 (llama VL and VH fused to human C-lambda and CH1), Fab displayed on phage (Fab, V domains shown)
VH: EVQLVESGGGLVQPGGSLRLSCTASGFTFSNYWMYWVRQAPGKGLEWVSAINAAGSTYYADSVKGRFTISRDNAKNTLYLQMNSLQSEDTALYYCANLPRWGQGTQVTVSS
VL: QTVVTQEPSLSVSPGGTVTLTCGLSSGSVTSGNYPGWYQQKPGQAPRTLIYNTNSRYSGVPNRFSGSISGNKAALTITGAQPEDEADYYCAVYIGSSSYPVVFGGGTHLTVLG
notes: as for B2
B5: safe variant 1E2 (partially humanized, fused to human C-lambda and CH1), Fab displayed on phage (Fab, V domains shown)
VH: B4 VH with T23A, A74S, L92V
VL: B4 VL with L10F, Y57S, N62D, S69L, E83D, A86S
notes: also called safe 1E2
B6: hum 1E2 (fully humanized VL and VH fused to human C-lambda and CH1), Fab displayed on phage (Fab, V domains shown)
VH: B4 VH with T23A, A74S, Q86R, S87A, L92V, Q106L
VL: B4 VL with L10F, K41T, Y57S, N62D, S69L, P82A, E83D, A86S, H108K
notes: as for B2
B7: wild type llama 1E2 Fab (Fab, V domains shown)
VH: B4 VH
VL: B4 VL
notes: Produced from phagemid pCB3; Hexahistidine and myc tags at the C-terminus of the Fd; Captured by anti-myc; also called Fab 1E2
B8: Fab 1F2 (llama Fab selected against IL-1Beta) (Fab, V domains shown)
VH: B1 VH with L5V, S75A, R87K
VL: B1 VL with T2A, F10L, L69S, A82P, D83E, S86A, K108H
notes: Original clone from the llama Fab phage library
B9: chimeric 1E2 Fab (llama VL and VH of 1E2 fused to human C-lambda and CH1) (Fab, V domains shown)
VH: B4 VH
VL: B4 VL
notes: Purified from E. coli (pCB5, no gene3); Myc and hexahistidine tags on the Fd; also called wt 1E2
B10: Fab 1E2 wt VL / hum VH (with human CL and human CH1) (Fab, V domains shown)
VH: B4 VH with T23A, A74S, Q86R, S87A, L92V, Q106L
VL: B4 VL
notes: Purified from E. coli; also called wt/hum; wt VA/hum VH
B11: Fab 1E2 wt VL / safe VH (with human CL and human CH1) (Fab, V domains shown)
VH: B4 VH with T23A, A74S, L92V
VL: B4 VL
notes: Purified from E. coli; also called wt/safe; wt VA/safe VH

target: T1, neutravidin (UniProt P02701 25-152); experiment: phage ELISA on neutravidin coated wells, anti-M13-HRP detection
T1 construct: Capture reagent of the phage ELISA; Wells without biotinylated IL-1Beta served as the negative control
T1 sequence (P02701 25-152): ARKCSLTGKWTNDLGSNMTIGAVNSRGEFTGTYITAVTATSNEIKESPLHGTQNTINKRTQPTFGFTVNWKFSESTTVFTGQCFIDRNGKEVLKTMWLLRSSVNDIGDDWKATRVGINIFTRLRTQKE
Experimental: (§1) Four clones for each Fab were tested to overcome clonal variation (due to bacterial growth, phage production efficiency and toxicity etc. . . . ). Phage ELISA was performed by capturing of biotinylated IL-1Beta on neutravidin coated Maxisorp plate and subsequent incubation of crude phage extract (i.e. bacterial medium). After extensive washing, bound phages were detected with an anti-M13-HRP monoclonal antibody.

Does B1 bind?
Result: no binding

Does B2 bind?
Result: no binding

Does B3 bind?
Result: no binding

Does B4 bind?
Result: no binding

Does B5 bind?
Result: no binding

Does B6 bind?
Result: no binding

target: T2, biotinylated human IL-1Beta (human, UniProt P01584 117-269, biotinylated (positions not stated)); experiment: phage display selection and phage ELISA on biotinylated IL-1Beta
T2 construct: In the assays it was biotinylated; also called biot-IL-1Beta

Does B7 bind?
Result: binds

Does B8 bind?
Result: binds

target: T2, biotinylated human IL-1Beta; experiment: ELISA: Fab captured on anti-myc plate, biotinylated human IL-1Beta, streptavidin-HRP
Experimental: For this the Fabs were captured on an anti-myc coated Maxisorp plate. Biotinylated human IL-1Beta was added and bound cytokine was detected using HRP-conjugated streptavidin.
The purified llama and chimeric 1E2 Fabs described above were captured on anti-myc coated maxisorp plates. After incubation with biotinylated human IL-1Beta and extensive washing, the biotinylated IL-1Beta bound to the Fab was detected using HRP-conjugated streptavidin.

Does B9 bind?
Result: binds

Does B10 bind?
Result: binds

Does B11 bind?
Result: binds

target: T2, biotinylated human IL-1Beta; experiment: phage ELISA: biotinylated IL-1Beta captured on neutravidin, crude phage, anti-M13-HRP
Experimental: as §1

Does B2 bind?
Result: binds
